Reference: patent US20140343258A1 (Astellas, published 2014)
Positions count from the first letter of the chain named. Each block holds one binder with its values, some of them ahead of it.

Columns and labels:
human CTGF [1] = molecular target: T1, human CTGF (human, UniProt P29279 27-349); experiment: ELISA, human CTGF immobilized on the plate, HRP anti-mouse IgG detection
T1 construct: also called human CTGF protein; connective tissue growth factor
T1 sequence: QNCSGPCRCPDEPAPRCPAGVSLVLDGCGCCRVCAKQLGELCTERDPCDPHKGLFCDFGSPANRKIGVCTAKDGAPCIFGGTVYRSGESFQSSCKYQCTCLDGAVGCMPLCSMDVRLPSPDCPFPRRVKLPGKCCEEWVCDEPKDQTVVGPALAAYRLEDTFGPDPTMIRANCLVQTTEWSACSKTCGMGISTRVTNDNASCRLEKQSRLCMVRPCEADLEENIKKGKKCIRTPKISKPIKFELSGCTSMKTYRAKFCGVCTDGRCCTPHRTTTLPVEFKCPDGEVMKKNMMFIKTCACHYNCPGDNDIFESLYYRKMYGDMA
Method: The present inventors evaluated the binding specificity of the antibody for CTGF using an ELISA method. 20 μL of PBS solution of human CTGF (1 μg/mL) was added to a Maxisorp 384 plate (Nunc, Inc.), and immobilized by being incubated overnight at 4° C. The next day, the plate was washed once with 100 μL of washing solution (TPBS: 0.05% Tween-20-containing PBS), and then 100 μL of blocking agent (1% BSA-containing PBS) was added thereto and allowed to stand at room temperature for 1 hour. After washing once with 100 μL of TBST washing solution, a series of appropriate dilutions of the purified antibody sample were prepared and added to the plate. After incubation at room temperature for 1 hour, the plate was washed three times with 100 μL of TBST washing solution, and a goat anti-mouse IgG antibody labeled with a horseradish peroxidase (HRP-goat anti-mouse IgG antibody; Zymed Laboratories, Inc.) which was diluted 5000-fold with a 0.1% BSA-containing TBST washing solution (20 μL) was added thereto. […] After adding 40 μL of TMB chromogenic reagent (Sumitomo Bakelite Co., Ltd.) thereto and allowing it to stand at room temperature for 10 minutes, 40 μL of stopping solution (2 mol/L sulfuric acid) was added thereto to stop the reaction, and the absorbance at 450 nm was measured. Each of the antibodies was tested in duplicate, and the EC50 was analyzed by curve fitting.

mouse CTGF = molecular target: T2, mouse CTGF (mouse, UniProt P29268 26-348); experiment: ELISA, CTGF immobilized on the plate, HRP anti-human IgG detection
T2 construct: mature
T2 sequence (looked up): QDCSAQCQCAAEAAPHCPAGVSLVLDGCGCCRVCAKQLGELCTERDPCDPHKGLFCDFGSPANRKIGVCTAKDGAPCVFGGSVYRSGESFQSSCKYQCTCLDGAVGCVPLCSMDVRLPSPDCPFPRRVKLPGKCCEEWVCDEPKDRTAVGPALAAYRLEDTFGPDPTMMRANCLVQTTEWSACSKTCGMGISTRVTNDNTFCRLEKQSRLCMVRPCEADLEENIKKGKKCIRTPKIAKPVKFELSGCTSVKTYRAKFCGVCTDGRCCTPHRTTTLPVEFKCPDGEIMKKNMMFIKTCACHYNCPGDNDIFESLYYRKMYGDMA
Method: (§1) The present inventors evaluated the binding specificity of the antibody for CTGF using an ELISA method. 20 μL of PBS solution of human CTGF (1 μg/mL) was added to a Maxisorp 384 plate (Nunc, Inc.), and immobilized by being incubated overnight at 4° C. The next day, the plate was washed once with 100 μL of washing solution (TPBS: 0.05% Tween-20-containing PBS), and then 100 μL of blocking agent (1% BSA-containing PBS) was added thereto and allowed to stand at room temperature for 1 hour. After washing once with 100 μL of TBST washing solution, a series of appropriate dilutions of the purified antibody sample were prepared and added to the plate. After incubation at room temperature for 1 hour, the plate was washed three times with 100 μL of TBST washing solution, and a goat anti-mouse IgG antibody labeled with a horseradish peroxidase (HRP-goat anti-mouse IgG antibody; Zymed Laboratories, Inc.) which was diluted 5000-fold with a 0.1% BSA-containing TBST washing solution (20 μL) was added thereto. After incubation at room temperature for 1 hour, the plate was washed three times with 100 μL of TBST washing solution. After adding 40 μL of TMB chromogenic reagent (Sumitomo Bakelite Co., Ltd.) thereto and allowing it to stand at room temperature for 10 minutes, 40 μL of stopping solution (2 mol/L sulfuric acid) was added thereto to stop the reaction, and the absorbance at 450 nm was measured. Each of the antibodies was tested in duplicate, and the EC50 was analyzed by curve fitting.
(§2) The present inventors evaluated the binding specificity of fully human 37-45 and fully human 37-45-MH1 prepared in the above Examples to human, mouse, rat and monkey CTGF using an ELISA method. Here, the same method as described in Example 4 was used, but a rabbit anti-human IgG antibody labeled with horseradish peroxidase (HRP-rabbit anti-human IgG antibody; DAKO) which was 5000-fold diluted with a 0.1% BSA-containing TBST washing solution as a secondary antibody. The test on each antibody was carried out in duplicate and EC50 was analyzed by curve fitting.

rat CTGF = molecular target: T3, rat CTGF (rat, UniProt Q9R1E9 25-347); experiment: as above
T3 construct: mature
T3 sequence (looked up): T2 sequence (looked up) with H16R, A148V
Method: as §1, §2

monkey CTGF = molecular target: T4, monkey CTGF (monkey); experiment: as above
T4 construct: mature
Method: as §1, §2

human CTGF [2] = molecular target: T1, human CTGF; experiment: as above
Method: as §1, §2

human CTGF [3] = molecular target: T1, human CTGF; experiment: SPR, Biacore 2000, comparison of KD with the reference antibody CLN1
Excerpt: (§3) In order to measure the antigen-specific binding activity of fully human 37-45-MH1 in more detail, the present inventors carried out surface plasmon resonance (SPR) analysis. In the present Example, an anti-human CTGF antibody CLN1 (Patent Document 2) was used as a comparative antibody.
(§4) In the SPR analysis, Biacore 2000 (GE Healthcare Japan) was used to carry out analysis. An anti-CTGF antibody was immobilized on the surface of a Sensor Chip CM5 using a Human Antibody Capture Kit and an Amine Coupling Kit (GE Healthcare Japan). Serial dilution of the human CTGF acquired in Example 1 was made by HBS-EP solution (GE Healthcare Japan). 100 μL of the dilution was added to flow path at flow rate 50 μl/min. By this measurement system, the association rate constant (ka), the dissociation rate constant (kd), and the dissociation constant (KD) between the human CTGF protein and the anti-CTGF antibody were calculated using a data analysis software (BIA Evaluation).

human CTGF [4] = molecular target: T1, human CTGF; experiment: SPR, Biacore 2000, antibody captured on CM5 chip (Human Antibody Capture Kit), human CTGF as analyte
Excerpt: as §3, §4

- EC50 (human CTGF [1]): 0.0016 µg/mL
B1: 37-45 (antibody, V domains shown)
VH: QVQLVQSGAEVKKPGASVKVSCKASGYTFTGYYMYWVRQAPGQGLEWMGWINPNSGGTNYSQKFQGRVTMTRDTSISTAYMELSRLRSDDTALYYCARGSKWNYPFDYWGQGTLVTVSS
VL: EIVLTQSPGTLSLSPGERATLSCRASQSVSSSYLAWYQQKPGQAPRLLIYGASRRATGIPDRFSGSGSGTDFTLTISRLEPEDFVVYFCQQYVSTPWTFGQGTKVEIKR
notes: also called 37-45 antibody

- EC50 (mouse CTGF): 0.0124 µg/mL
- EC50 (rat CTGF): 0.0131 µg/mL
- EC50 (monkey CTGF): 0.0125 µg/mL
- EC50 (human CTGF [2]): 0.0132 µg/mL
B2: fully human 37-45 (antibody, human IgG1, kappa, V domains shown)
VH: B1 VH
VL: B1 VL
notes: Human Ig gamma1 and human kappa constant regions, expressed in CHO-K1SV cells; The heavy-chain variable region has an N-glycosylation motif at Asn 58 (Kabat)

- fold binding activity against CLN1 (human CTGF [3]): ≥ 12 times
- EC50 (mouse CTGF): 0.0092 µg/mL
- EC50 (rat CTGF): 0.0092 µg/mL
- EC50 (monkey CTGF): 0.0086 µg/mL
- EC50 (human CTGF [2]): 0.0104 µg/mL
- Kd (human CTGF [4]): 0.037 nM
- koff (human CTGF [4]): 0.00016 s⁻¹
B3: fully human 37-45-MH1 (antibody, human IgG1, kappa, V domains shown)
VH: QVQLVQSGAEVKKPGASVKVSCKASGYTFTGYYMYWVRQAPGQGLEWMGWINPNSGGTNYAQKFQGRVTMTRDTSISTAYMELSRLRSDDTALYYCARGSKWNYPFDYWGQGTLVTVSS
VL: B1 VL
notes: It has the same light chain as fully human 37-45; Human IgG1/kappa
